# Reference: the DeepSol protein solubility set
# Test: soluble on expression in E. coli; label from the status in PepcDB or PDB records
row,Sequence,soluble on expression in E. coli
1,MKYQIVTSGFGGQGAVFIVKLLSLCAGIKGEKYLGTENHGMSQRGGSVSCFIKVGDFYTPVIEENQADMIIALEQNEGLRTLQYLKKGGKLIVNADDSLPRLEGCEAIKVDAFSLAKEGRFPAQALNAFMVGVASMQSGFPFDEETLKKGLEMINPKVAESNIQVFELGRACAPRS,not soluble
2,ATGWNNALGHTAANEEPQEEASSQTTSIHFPLDYKQWQEEQDINLLNRALEEAKFNQRQAAELLGLSYHQLRGMVRKYGLVGQS,soluble
3,MGSDKIHHHHHHMEATTNNMKDVTGAELLICTIGHSTHPLEEFINLLKKNEVTHLLDVRTVPRSRHNPQFNKETLPDALGAIGIKYTHLSGLGGLRHARKDSINEGWRNASFRGYADYMQTQEFVENVNRVIELAAHDRCALMCAEAVPWRCHRSLIADALVVRGVRVEDIIDNHGRKPHSLTPWAQAEGVRIFYPAQQGRLI,not soluble
4,MNLKSFTRKVSSTRDHRLLAEAIFDQLENLFSPHAIAIFEDPLTNPRCSVSFSRGELYPIQKYPEIFWDWACQFDTSESIIPLAINTCNWNHTQDLGGDSYILMLDNTPIKRTYLLIQSVQARTAHNIYEESYDAMQLAAARWQCIRAEKNASQEMRHRDIREAQYVDEISQRERFIENMKLVQQVALEISNPDSLKDLYYKAVEALRERLGFDRTTLMLLDMKKRSFSGTYGTDESGITIDEFHTQYDLHQLSEEYIAALSSLESNLVIIEDAPIYTAGKVVGQGWNAMLILRDGNEPFGWFALDNFIHRKPITAYQKQMLDSFGSLFSQIYIRKRQEQNVRMLHSSMVELSRCTTVSDVCKSAVTFAIKNLGIDRMAVFLTDENCSYMQGTWGTDIQGNVVDESYFFGETQNFSLINLARAVPSEVAFEESVPIYHDCNIVG,not soluble
5,MIEIKQVKTQDEVNYTFVEKLMHTAFPQEERRDTVQQREYSDNNPRFCNNIILENGNSIGMISYWTMGDFYYIEHFAIDPSLRNGGYGKRVLEMIKKQLKGPIVLEVEEPNDEMSTRRIHFYKRLEFTLHKKPYIQPPYRKGDSGLPMLLMTYGDIDMESDFEKVKKTLYKEVYGQEI,not soluble
6,MGSDKIHHHHHHMHISNMDGLDILSLKILVSLYENKSATYVSKALDIPAPKISRSLKNLREIFGDELFIRRKYGLFPNEFATHLYPIAKEAIECTDKFHKARAANANLVKTHIEIAAPGLIAYAFPKALMQAIKDEQKLMHINITPWSMHTTQDIINGDTTLGICCNKSTADVAAFGDKLLTTTLQSMDKVYLLASRNHPIFKREITLETIAEYPYVNTDLGNPSSKLSPYQEFCLKSNIKLNTEITITSISSLFEYLGESQALSLLPYRVVYEMVSDVAELHTCQLSQLEAERLYAHAEAPTIFLVQKNQPNKVNDDLVWLSGQIKKIVDHII,not soluble
7,MGSDKIHHHHHHMNIIICDDRIDDRKNLSDLLSDYGEKKNYEFTITEYDSGEQLCEEQSALEACQLLFLDINMQGMDGLKTAMRIKEKYPKLPVVLVTAYMNYALDGYKVKASRFLLKDNLADTIEECMDDLIAEINKNRRILEFRFVEGTIKLYADDIIYIETELHKNVFYTEKGTFQIYKKLDELENEFKDMGFVRAHLSFLVNMRYITKISGYVMTLTTGKKIPVPKARYAQVKREYMLYKGEE,not soluble
8,MAHHHHHHMEAETSKISEVPLPIPIGINGFGAVGRAVLFASMTEPQVTVVAVNDFSVSINYVLYVLQNESPLSAEDKASLTVVGEYIFYRGTERIRVTQKHDLVDIAWRDAGVSYVVECTGFTSTRDRCWGHLTSGARGVLVAGQSGDAPAIVAGVNDSDLSKIQPIICSGAPLAVALAPFIRILHESFGVEDCSYTAIHAIQPVEPNAARSANSQDWRQTRVTLDSITPYAHTGMTTFCKLMPTLSSRITGSAFQVPVTKGCAIDMLLRFKQPVAKESVDEALIEASKDRLKDVLFVSKRDFISRDLLPDGKLCYDPSASQCVREGELYKFTLWFDLERSFAKRLISLIPVMNDADAKKNNV,soluble
9,MSLKTKFGKCIYISPSGYKVYQNLLYRWLTLGSEAWQTVINRYIPRRPGLHYLQILTLMARKFPNDCCLLGLGGAGIAHLLGAQKTIRSIVAVESSEEVIQIAKKFFMTDLIPHFTITHQNARDFVRENKKTFQHMLLDLYDATHFPDECHSMDFFIHCKKQLTDDGFLAVNLANSQEQWALVQLIKKQFPSNIIIPIKKCANIVVIASKNDNKDLFIKQVRNTNEIKKITWVKDWGYVAEYEGHHHHHH,not soluble
10,MYADEVDKDRRTFKKNFSSARGSGIDGKWKRDMFQTANRSPKQNFTTKRRAQTNFVTKAGAAAAGLATRNISTASIRGRTAPAVVREIHTGPSTLIIKNLATTVTQEDLEELFEQYEPELVQLHYGPTGESNGCADLIVPHAQVAIIQKALEGVLLDGEPIEVLEANPPKQVSVFDRIKKVSRGNDFKAKNMRVVVKSKGGFQKRGARGDF,not soluble
11,AIAAEMKTYSHRTMPSACTLVMCSSVESGLPGRDGRDGREGPRGEKGDPGLPGAAGQAGMPGQAGPVGPKGDNGSVGEPGPKGDTGPS,soluble
12,VVGHIVNDLQRRKVGDQEVVKFRVASNSRRRTSDGGWEPGNSLFITVNCWGRLVTGVGAALGKGAPVIVVGHVYTSEYEDRDGIRRSSLEMRATSVGPDLSRVIVRIEKPAYTGPSAGDLPAATGTGAAGAADAPASAADSVSDVVVDDAITGHNPLPISA,not soluble
13,AHHHHHHGSVKVTFLGHAAFYIEGSKKILIDPFLSGNPVASAKPDDFKSVDLILVTHAHGDHLGDVGTIAKRTGAKVVAMYDLANYIAEKYKGVETIGMNYGPTKVDEVEIVQVPAWHSSSDGKYSIGNACGYIVKLDGVTIYHAGDTYVFKDMELFAELYGPIDVALLPIGGHFTMGVREAAKAVELLKPRHVIPMHYNTWPPIAADPEEFKKLVGEKAKVVILKPGESLEL,not soluble
14,GMNNLYHLKVRCSSLHKIIGEPKSKADKEAGKLTDTAKSAVREMAKFDLFGYNAFEGNKYTQKGNELEEQAIKLSGVTRGLALKKNTERRENEFITGECDIYVPSRKLIIDTKCSWDIGSHPFFTDEAQEKAKKAGYDIQMQGYMWLWDCDQAQIDFVLFPTPLNLISAYDSDFKLIDLVEQIPQIRRITTVIIQRDNELIDKIKERVSAAQKYYDQLISEMS,soluble
15,MGSDKIHHHHHHMLGTLKKLRSRLDEADLVQYNLVVGDQELPLNPLIGQTLSLTHTGNIFCCNCGRKTKKSYSQGHCFPCMQKLASCDMCIMKPETCHFDQGTCREPQWAQSHCFVPHYVYLSNTSGIKVGITRNNQLPTRWIDQGATQGLAIFKVSTRQLSGLIEVELAKLVKDKTNWQAMLKSNAADIDLNAKAQELIPHIEHRLNELAMEKGEYKIERLTETIQQINYPMTAFPKKISSHNFDKVPEVTGVLLGIKGQYLIFDTGVINIRKFSAYEVTVTTN,not soluble
16,MGSDKIHHHHHHMLDQAERLRNMALKKNAGEEIKRPVIITVTSGKGGVGKSNFVVNLSITLQQMNKKVLIFDADVGMGNDDILLGCISKYSVFDVIYNNMKIEDAIVEGPFGVKLLPGGSGITKFKDITEDQINAFVKKLASIGNFDYIIMDTGAGVNRSVLGFISCCEELIILTTPEPTSLTDAYSLFKAVVHFKIKSYAKVVINRVVDNKEGLETYKKFQSVAKKFLKADTEFLGSISEDSRIVKAVRNQTPFVVENPNCYAAKDIQYIANKLMGTTTKDNGLGIEGLFKKLFKIFS,not soluble
17,MPILKHLLLKNRKQPMQKKFVATAVGYVPWGDGAAEYFYNLYEYEDGTRECEKFDGGQYYKIPENADFSTKAQVKAWIYGGAVPKSVLSYEALIDEMNENIKQRSQAGGEIDRQLEEALDKQLGRYKNNKKIKNYRKQLNLKHDSSALFLDGEEIYSVTACRINQKI,not soluble
18,MGSDKIHHHHHHMRNSLLVFTLDCQVKIDSKTVDCQTNIDSFLTPNSNLIIVEVEEIKRILLDQESFLNDKLRKERIITRHYNYSITYNNAYLITGPRRAGKSIFTVQLTKGKEILRVDFDDERLSGIKANELNKFLEAGYQIKKKIEVIILDEIQNVKGWELFVSRIREIYPVIVTGSNARLMSSEMATYLTGRHMDFLVFPFSFKEYLRYKDVKVEETTRGIARLKEELRNYLQQGGFPETFKFDKNEYLRNLYSDIITRDVIIRCKTRKDVKGLADFLLENIGKEVSTRRVGNAFNLSHQSVENYFYCLSNAYLFLFVKRFTGKSLERYTLPRKVYVIDTGLFNTYKRLQMGKMIENLVFLELYKRYGQEVYYYSNGNAEVDFIIKDKFAIQVTYDEGGIDDREYKGLVRFSERFKDYKLIIITWDREGKEIRNGKEITLIPLWKFLVKERFAGEMIGKES,not soluble
19,YLLGAFKPACNISITFSDGKNRKQVPMKKENGQTALVPLFHSQDTISGKVCIEPYQGKKVEHNGVKVELLGQIANYSYDSFLLLTTVRELDVPGEIYERKTYPFEFPTVEMPYETYNGVNVRLRYVLKVTVTRGYAGSILEYQELVRNYAPLPDINNSIKMEVGIEDCLHIEFEYNKSKYHLKDVILGKIYFLLVRIKMKNMDLEIRRRESTGAGANTHVETETLAKFELMDGTPVRGESIPVRLFLAPYDLTPTHRNINNKFSVKYYLNLVLVDEEDRRYFKQQEITLYRLKEDASS,soluble
20,MDAQSYMPVPPGVGMEENFFSLDDILLSHERLPCRTESAFPRLGFLEKSSDSRDIPEGTKMEMPLWLAKGLYERKRRVLSVELPKVYREGWRTVFGADPTVVDLYKMGPYYYGLGSQMLHFESPENPEIANTILQTFIGRFRRTMDSSQNAYNEDTSALVERLDYLERSLFKAGQSGLNNFQLWEKGRSSHLTASSLVINYRKRKMTDLQA,not soluble
21,YQNYGIMAAIDHINALKDLVKRFPKFADLPKIYGGGSYGGYLSLLIAKIAPWYVDGVIDNSGVCLPFLACILGREMNQGEFYFEGSGYRLYCFVYKYWNRNMNSSYYFGDENYLIRAVLNSNHLQIQSNLNKNTIFVSYHSIQDMGAPVQNKIELYKCYQELGYDATLHLIKDEN,not soluble
22,TSEEYYKRKKQIKKLMSDQYAFLDLHGFTLHEDLYFEGIYEGFFFRVCPATEYIKKGYAGKKAIEYVIIESFYRFASEATDMDREVKMSGEYNFGDVHFENHCAGFVPKDWKNPDFKANFDALITIFEREGLLPITKNDWESTFGQHSKKAKDASRKNPQR,not soluble
23,QGRYTTDDGYIFNASDIIEDTGDAYIVPHGDHYHYIPKNELSASELAAAEAFLSG,soluble
24,MKKVGEYFLDPNLDPGRDHILYKDDEHMVIYLGTQEGLEDVDVNSYLIVSKGKGILIDPGGYKIFTKVLANVSKYIDPKDIEYIYMCHQDPDVAGSIPLWREISNAKIIIHWLWVRFLPHFGFENIRGYAHELQDEGETLNFGATTLEFIPAHFLHSPGHFTVYDRRSKFLFSGDIGIAFPDERYLVVENMERHIQYMRPLHERLMASNKALRLWVNKVRGLDIEAILPQHGAIIPRRFVPRFLDWLENLKVGVDLMR,soluble
25,MEIKEVLPCIADPKKLRVIGRVDGNFPAVMPYLARLIPNASYNEKRGWISFKKGQRIITIHEDGFVAMTQIKDEDEAKSILGEIEQKAQEAWEKRNKIDLSKPLEKTVVSPFDVYNYLPKTNCKRCGEQTCMAFAVKLLNGEVDIKACKPLFEDKKYEGLRETLIGMLVAAGYDLEL,soluble
26,MSLEYKLTPSYLLKENMVLACGNILFADDGFSVHVIEKLQELLTEEEKENIALVDAGAGAPQQVLTLIDSEAKTKKIIVVDIIDYGLEPGEIKILTMDDLPKPEHTKVDSHDWPLSTTMYRVFRDAPHEIDFKVVGCQKKYVSEPDVVIELSEEVQNAVDVAVDIVLSELRGKPINEGHHHHHH,soluble
